Nine molecules from US20040253243A1, “Aptamer therapeutics useful in ocular pharmacotherapy” (priority 2003, published 2004) can be followed below.

Strand notation (5' to 3'): a small letter for the sugar, then the base; units joined by * are phosphorothioate-linked, units joined directly phosphodiester-linked; [ ] holds rarer units or linkages, { } end groups; capitals alone tell only the bases. r = 2'-OH (RNA); f = 2'-fluoro

T1: TGFβ2 (Homo sapiens, UniProt P61812)
T1 construct: For bio-chemical characterization of these aptamers, two forms of mature TGFβ2 were generated, native and N-terminal his-tagged versions, in E. coli
T1 sequence (P61812 303-414 limits assumed): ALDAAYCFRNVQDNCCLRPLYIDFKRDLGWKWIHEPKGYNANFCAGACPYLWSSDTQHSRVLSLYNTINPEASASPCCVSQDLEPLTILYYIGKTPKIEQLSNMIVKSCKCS

B1: GGGAGGACGAUGCGGGGAGGUUAUUACAGAGUCUGUAUAGCUGUACUCCCAGACGACUCGCCCGA (nucleic acid)
chain: rGrGrGrArGrGrAfCrGrAfUrGfCrGrGrGrGrArGrGfUfUrAfUfUrAfCrArGrArGfUfCfUrGfUrAfUrArGfCfUrGfUrAfCfUfCfCfCrArGrAfCrGrAfCfUfCrGfCfCfCrGrA
B2: GGGAGGACGAUGCGGACAGAGUAUUAUAGAGUAUGUAUAGCUAUACUGUCCAGACGACUCGCCCGA (nucleic acid)
chain: rGrGrGrArGrGrAfCrGrAfUrGfCrGrGrAfCrArGrArGfUrAfUfUrAfUrArGrArGfUrAfUrGfUrAfUrArGfCfUrAfUrAfCfUrGfUfCfCrArGrAfCrGrAfCfUfCrGfCfCfCrGrA
modifications: aptamer
B3: GGGAGGACGAUGCGGUGAGAGUAUUAUAGAGUCUGUAUAGCUAUACUCGCCAGACGACUCGCCCGA (nucleic acid)
chain: rGrGrGrArGrGrAfCrGrAfUrGfCrGrGfUrGrArGrArGfUrAfUfUrAfUrArGrArGfUfCfUrGfUrAfUrArGfCfUrAfUrAfCfUfCrGfCfCrArGrAfCrGrAfCfUfCrGfCfCfCrGrA
modifications: aptamer
B4: GGGAGGACGAUGCGGACAGAGUAUUAUAGAGUAUGUAUAGCUAUACUGUCAGACGACUCGCCCGA (nucleic acid)
chain: rGrGrGrArGrGrAfCrGrAfUrGfCrGrGrAfCrArGrArGfUrAfUfUrAfUrArGrArGfUrAfUrGfUrAfUrArGfCfUrAfUrAfCfUrGfUfCrArGrAfCrGrAfCfUfCrGfCfCfCrGrA
modifications: aptamer
B5: GGGAGGACGAUGCGGUGUGAGUAUUAUAGAGUCUGUAUAGCUAUACCACCAGACGACUCGCCCGA (nucleic acid)
chain: rGrGrGrArGrGrAfCrGrAfUrGfCrGrGfUrGfUrGrArGfUrAfUfUrAfUrArGrArGfUfCfUrGfUrAfUrArGfCfUrAfUrAfCfCrAfCfCrArGrAfCrGrAfCfUfCrGfCfCfCrGrA
modifications: aptamer
B6: GGGAGGACGAUGCGGUGAGAGUAUUAUAGAGUCUGUAUAGCUAUACCACCAGACGACUCGCCCGA (nucleic acid)
chain: rGrGrGrArGrGrAfCrGrAfUrGfCrGrGfUrGrArGrArGfUrAfUfUrAfUrArGrArGfUfCfUrGfUrAfUrArGfCfUrAfUrAfCfCrAfCfCrArGrAfCrGrAfCfUfCrGfCfCfCrGrA
modifications: aptamer
B7: GGGAGGACGAUGCGGGACAGAGUAUUAUAGAGUAUGUAUAGCUAUACUGUCAGACGACUCGCCCGA (nucleic acid)
chain: rGrGrGrArGrGrAfCrGrAfUrGfCrGrGrGrAfCrArGrArGfUrAfUfUrAfUrArGrArGfUrAfUrGfUrAfUrArGfCfUrAfUrAfCfUrGfUfCrArGrAfCrGrAfCfUfCrGfCfCfCrGrA
modifications: aptamer
B8: GGGAGGACGAUGCGGAUAGAGUAUUAUAGAGUAUGUAUAGCUAUACUAUCAGACGACUCGCCCGA (nucleic acid)
chain: rGrGrGrArGrGrAfCrGrAfUrGfCrGrGrAfUrArGrArGfUrAfUfUrAfUrArGrArGfUrAfUrGfUrAfUrArGfCfUrAfUrAfCfUrAfUfCrArGrAfCrGrAfCfUfCrGfCfCfCrGrA
modifications: aptamer
B9: GGGAGGACGAUGCGGAGGGAUUAUUAUAGAGUCUGUAUAGCUAUACCCUCAGACGACUCGCCCGA (nucleic acid)
chain: rGrGrGrArGrGrAfCrGrAfUrGfCrGrGrArGrGrGrAfUfUrAfUfUrAfUrArGrArGfUfCfUrGfUrAfUrArGfCfUrAfUrAfCfCfCfUfCrArGrAfCrGrAfCfUfCrGfCfCfCrGrA
modifications: aptamer

The target in one data set is T1, TGFβ2. The experiment in a line: Dot blot binding of doped reselection aptamers to TGFβ2. To be noted: CW128_103. The method, then: TGFβ2 was serially diluted in DPBS containing 0.2 mg/ml BSA and 0.2 mg/ml tRNA. ^32P-labeled RNA (<20 pM) were incubated with TGFβ2 at room temperature for 30 min. Samples were pipetted with a multichannel pippetor onto a multiwell manifold holding layers of pre-wetted 0.45 micron nitrocellulose, hybond membrane, 3MM filter paper (the order is from top to bottom), aspirated, and washed 3× with DPBS (containing tRNA). All three filters were air dried, exposed to phosphorimager plate, analyzed by ImageQuant.
Take B1: binding was put at a Kd of 0.75 nM.
Consider B2, for which the Kd was found to be 0.53 nM.

For a further data set, the target named is T1, TGFβ2. In words: Binding data as performed in MLEC inhibition assay CW115-95, 117, 129. It is filed as cell-based. To be noted: full-length aptamer sequences; experiment 129. The protocol:
MLEC Assay. The mink lung epithelial cell proliferation assay is performed over two days. On day 1:1) media is aspirated off from Mink Lung Epithelial Cells (MLEC); 2) the MLEC are washed with 10 ml 1×PBS; 3) 3 ml Trypsin is added and Trypsinize for 3 min at 37° C.; 4) quench with 10 ml 0.5% FBS media; 5) spin at 1000 rpm for 3.30 min; 6) aspirate off supernatant; 7) resuspend pellet in 10 ml 0.5% FBS media; 8) Count 10 μl cell suspension; 9) adjust cell density to 80,000 cells/ml; 10) add 50 μl of cells/well to black bottomed 96-well plates (4000 cells/well); pipet up and down during plating process to avoid settling of cells and uneven plating; 11) incubate cells at 37° C. in 5% CO2 for 4 hrs to allow adherence of cells; 12) add 25 μl of aptamer (or media, or other test reagent, such as for example, an antibody), preferably the outer wells are not used for treated cells; 13) add 25 μl of TGFβ2 (typically 25 pg/ml); and 14) incubate cells at 37° C. in 5% CO2 overnight.
On day 2:1) mix 20 μl BrdU with 2 ml 0.5% FBS media; 2) add 10 μl of BrdU mixture/well; 3) incubate cells at 37° C. in 5% CO2 for 3 hrs; 4) remove media and blot plates dry on paper towels; 5) add 200 μl/well FixDenat solution and incubate for 30 min at room temperature (RT); 6) remove FixDenat solution and blot plates dry on paper towels; 7) add 100 μl /well anti-BrdU POD solution and incubate for 90 min at RT; 8) remove anti-BrdU POD solution and blot plates dry on paper towels; 9) wash plates 3× with […] washing solution with 5 min RT incubations and blot plates dry on paper towels; 10) add 100 μl /well substrate solution and incubate for 3 min at RT in dark; and 11) read plates using PSP Luciferace 1 program on TopCount (Packard Bioscience Co., Downers Grove, Ill.).
For the molecule B3, the IC50 amounted to 6.5 nM.
Same read-out and setting: next, B4: 14.5 nM; B5: 7.4 nM.
On the same count and under the same terms, to B6 belongs 8 nM.
In turn, B7 yielded an IC50 of 12.1 nM.
B8 displayed an IC50 of 17.9 nM.
B9: the IC50 came out at 5.3 nM.
Still for that read-out and setting: to B2 belongs 5.2 nM.

The Kd is the concentration at which binding is half-saturated. One may read the IC50 as the midpoint of a concentration-inhibition curve.
